Source: patent publication US20210269525A1 (BIOCYTOGEN PHARMACEUTICALS BEIJING, published 2021)
Where two headings read alike, the source gives them in different places.

T1: Cynomolgus CD3 epsilon Protein, His Tag (Acrobiosystems, Cat #CDE-05226) (cynomolgus (Macaca fascicularis), UniProt Q95LI5 22-117)
T1 construct: also called monkey CD3e; not shown: His tag
T1 sequence: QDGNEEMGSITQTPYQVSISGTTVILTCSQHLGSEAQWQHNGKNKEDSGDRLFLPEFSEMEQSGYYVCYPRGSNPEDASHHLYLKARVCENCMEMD


Tests used:
[1] = molecular target: T2, human CD3e (T-cell surface glycoprotein CD3 epsilon chain) (human, UniProt P07766 23-207); test: cell-based or functional assay
[2] = molecular target: T3, Histidine-tagged human CD3e protein (human, UniProt P07766 23-126); test: SPR (Biacore), human CD3e
T3 construct: also called hCD3e-His; not shown: His tag

[3] = molecular target: T1, Cynomolgus CD3 epsilon Protein, His Tag …; test: SPR (Biacore), cynomolgus CD3e His tag
Description: The binding affinity of the anti-hCD3e antibodies with monkey CD3e (Cynomolgus CD3 epsilon Protein (SEQ ID NO: 39 AA Gln 22-Asp 117), His Tag, Acrobiosystems, Cat #CDE-05226) were also measured using surface plasmon resonance (SPR) using Biacore (Biacore, INC, Piscataway N.J.) by the methods as described in the examples.

[4] = molecular target: T2, human CD3e (T-cell surface glycoprotein …); test: flow cytometry, human PBMC, antibody 0.1 ug/mL, anti-human IgG Fc-Alexa Fluor647 (1:500), anti-hTcRβ-PerCP (1:30)
Description: (§1) PBMC cells were collected from a human subject. After being thawed, the cells were cultured for 3-4 hours. The medium was then discarded, and the cells were resuspended in phosphate-buffered saline (PBS). The cell concentration was then adjusted to 2×10⁶/25 μl PBS.
(§2) A 96-well plate was prepared. 25 ul of cell suspension was added to each well. […] The cells and the antibodies were incubated. After centrifuge, the residues were discarded. The samples were washed again. 25 ul of PBS was then added to each well to resuspend cells.
(§3) Anti-human IgG Fc-Alexa Fluror647 (1:500) and anit-hTcRβ PerCP (1:30) were then added to each well. The cells and the antibodies were incubated and then the cells were washed again by PBS. 300 ul of PBS was then added to each well to resuspend the cells. FACS was performed.

[5] = molecular target: T2, human CD3e (T-cell surface glycoprotein …); test: flow cytometry, human PBMC, antibody 0.01 ug/mL, anti-human IgG Fc-Alexa Fluor647 (1:500), anti-hTcRβ-PerCP (1:30)
Description: as §1, §2, §3

[6] = molecular target: T4, monkey CD3e (Macaca fascicularis) on PBMC (Macaca fascicularis, UniProt Q95LI5 22-198); test: flow cytometry, Macaca fascicularis PBMC, antibody concentration not given, anti-human IgG Fc-Alexa Fluor647 (1:500), anti-hTcRβ-PerCP (1:30)
T4 construct: Target on PBMC from Macaca fascicularis; also called mfCD3e; monkey PBMC
Description: A 96-well plate was prepared. 25 ul of cell suspension was added to each well. Anti-hCD3 antibodies were added to the 96-well plate. The cells and the antibodies were incubated for 15 minutes at 4° C. 185 ul PBS was then added to each well. After centrifuge at 2000 rpm for 5 minutes, the medium was discarded. The samples were washed again. 25 ul of PBS was then added to resuspend cells.
Anti-human IgG Fc-Alexa Fluror647 (1:500) and anti-hTcRβ PerCP (1:30) were then added to each well. The cells and the antibodies were incubated for 15 minutes at 4° C. 185 ul PBS was then added to each well. After centrifuge, the residues were discarded. The samples were washed again. 25 ul of PBS was then added to resuspend cells. […] In contrast, anti-hTcRβ PerCP cannot bind to monkey PBMC.

[7] = molecular target: T2, human CD3e (T-cell surface glycoprotein …); test: flow cytometry, human PBMC, antibody 1 ug/mL, anti-human IgG Fc-Alexa Fluor647 (1:500), anti-hTcRβ-PerCP (1:30)
Description: as §1, §2, §3

[8] = molecular target: T3, Histidine-tagged human CD3e protein; test: SPR (Biacore), human CD3e; remark: listed apart in the source
[9] = molecular target: T2, human CD3e (T-cell surface glycoprotein …); test: flow cytometry, human PBMC, antibody 1 µg/mL, anti-human IgG Fc-Alexa Fluor647 (1:500), anti-hTcRβ-PerCP (1:30)
Description: as §1, §2, §3

[10] = molecular target: T2, human CD3e (T-cell surface glycoprotein …); test: flow cytometry, human PBMC, antibody 10 µg/mL, anti-human IgG Fc-Alexa Fluor647 (1:500), anti-hTcRβ-PerCP (1:30)
Description: as §1
A 96-well plate was prepared. 25 ul of cell suspension was added to each well. Anti-hCD3e antibodies with different combinations of humanized 1B1 heavy chain variants and humanized 1B1 light chain variants were diluted to 20 ug/ml (2×) in PBS, and were added to the 96-well plate. The cells and the antibodies were incubated. After centrifuge, the residues were discarded. The samples were washed again. 25 ul of PBS was then added to each well to resuspend cells.
as §3

[11] = molecular target: T2, human CD3e (T-cell surface glycoprotein …); test: flow cytometry, human PBMC, antibody 0.1 µg/mL, anti-human IgG Fc-Alexa Fluor647 (1:500), anti-hTcRβ-PerCP (1:30)
Description: as §1, §2, §3

| Binder | EC50, luciferase of Jurkat-Luc-NFAT cells; antibody from supernatant [1] [µg/mL] | Kd [2] [nM] | koff [2] [s⁻¹] | kon [2] [M⁻¹ s⁻¹] | upper left quadrant, percent of cells AF647+ / hTcRβ-PerCP- [4] [%] | upper right quadrant, percent of cells AF647+ / hTcRβ-PerCP+ [4] [%] | upper left quadrant, percent of cells AF647+ / hTcRβ-PerCP- [5] [%] | upper right quadrant, percent of cells AF647+ / hTcRβ-PerCP+ [5] [%] | upper left quadrant, percent of cells AF647+ / hTcRβ-PerCP- [6] [%] | upper right quadrant, percent of cells AF647+ / hTcRβ-PerCP+ [6] [%] | upper left quadrant, percent of cells AF647+ / hTcRβ-PerCP- [7] [%] | upper right quadrant, percent of cells AF647+ / hTcRβ-PerCP+ [7] [%] | also measured |
| --- | --- | --- | --- | --- | --- | --- | --- | --- | --- | --- | --- | --- | --- |
| 10A4-H2K2-IgG1-LALA (antibody, V domains shown, Humanized; human IgG1 with LALA mutations; also called H2K2 (humanized 10A4)) VH: QVQLVQSGAEVKKPGASVKISCKASGYTFTSYYIHWVRQAPGQRLEFIGWIYPGNVNAKYNEKFKGRATITTDKSASTAYMELSSLRSEDTAVYYCAIKGGNYDWGQGTLVTVSS VL: DVVMTQSPLSLPVTLGQPASISCQSSQSLLDSDGKTYLNWLQQRPGQSPRRLIYLVSKLGSGVPDRFSGSGSGTDFTLKISRVEAEDVGVYYCWQGTHFPRTFGGGTKLEIK | 0.247 | 1.96 | 0.000134 | 68400 | 8.05 | 53.3 | 2.42 | 11.6 | 44.2 | 3.1 |  |  | EC50, luciferase of Jurkat-Luc-NFAT cells; purified antibody [1]: 0.263 µg/mL; Kd [3]: 8.21 nM; koff [3]: 0.000411 s⁻¹; kon [3]: 50100 M⁻¹ s⁻¹ |
| 10A4-H3K1-IgG1-LALA (antibody, V domains shown, Humanized; human IgG1 with LALA mutations; also called H3K1 (humanized 10A4)) VH: QVQLVQSGAEVKKPGASVKISCKASGYTFTSYYIHWVRQRPGQRLEFIGWIYPGNVNAKYNEKFKGRATLTTDKSASTAYMELSSLRSEDTAVYFCAIKGGNYDWGQGTLVTVSS VL: DVVMTQSPLSLPVTLGQPASISCQSSQSLLDSDGKTYLNWLQQRPGQSPRRLIYLVSKLGSGVPDRFSGSGSGTDFTLKISRVEAEDVGVYYCWQGTHFPRTFGGGTKVEIK | 0.198 | 2.12 | 0.00014 | 65900 | 10.7 | 55.6 | 2.62 | 12.9 | 52 | 2.39 | 14.5 | 75 |  |
| 1B1-H3K3-IgG1-LALA (antibody, V domains shown, Humanized; human IgG1 with LALA mutations; also called H3K3 (humanized 1B1)) VH: QVQLVQSGAEVKKPGASVKLSCKASGYTFTSYWMHWVRQRHGQGLEWIGNIYPDSGTTNYGEKFKTRVTLTVDTSTSTAYMELSSLRSEDTAVYYCTRDTSGQYYFDYWGQGTLVTVSS VL: DIVMTQSPDSLAVSAGERVTMNCKSSQSLLNSRTRKNYLAWYQHKPGQSPKLLIYWASTRESGVPDRFSGSGSGTDFTLTISSVQAEDVAVYYCVQSFSLRAFGGGTKLEIK |  |  |  |  |  |  |  |  | 86.8 | 9.46 |  |  | Kd [8]: 0.718 nM; koff [8]: 0.000501 s⁻¹; kon [8]: 698000 M⁻¹ s⁻¹; upper left quadrant, percent of cells AF647+ / hTcRβ-PerCP- [9]: 11.6%; upper right quadrant, percent of cells AF647+ / hTcRβ-PerCP+ [9]: 58.1%; upper left quadrant, percent of cells AF647+ / hTcRβ-PerCP- [10]: 9.61%; upper right quadrant, percent of cells AF647+ / hTcRβ-PerCP+ [10]: 63.7%; upper left quadrant, percent of cells AF647+ / hTcRβ-PerCP- [11]: 11.8%; upper right quadrant, percent of cells AF647+ / hTcRβ-PerCP+ [11]: 54.5% |

Continued, in another order:

| EC50, luciferase of Jurkat-Luc-NFAT cells; antibody from supernatant [1] [µg/mL] | Kd [2] [nM] | koff [2] [s⁻¹] | kon [2] [M⁻¹ s⁻¹] | upper left quadrant, percent of cells AF647+ / hTcRβ-PerCP- [4] [%] | upper right quadrant, percent of cells AF647+ / hTcRβ-PerCP+ [4] [%] | upper left quadrant, percent of cells AF647+ / hTcRβ-PerCP- [5] [%] | upper right quadrant, percent of cells AF647+ / hTcRβ-PerCP+ [5] [%] | upper left quadrant, percent of cells AF647+ / hTcRβ-PerCP- [6] [%] | upper right quadrant, percent of cells AF647+ / hTcRβ-PerCP+ [6] [%] | upper left quadrant, percent of cells AF647+ / hTcRβ-PerCP- [7] [%] | upper right quadrant, percent of cells AF647+ / hTcRβ-PerCP+ [7] [%] | Binder | also measured |
| --- | --- | --- | --- | --- | --- | --- | --- | --- | --- | --- | --- | --- | --- |
| 0.234 | 1.31 | 8.91e-05 | 68100 | 9.91 | 51.2 | 2.56 | 12 | 68.5 | 3.45 | 12.4 | 76.8 | 10A4-H4K1-IgG1-LALA (antibody, V domains shown, Humanized; human IgG1 with LALA mutations; also called H4K1 (humanized 10A4)) VH: QVQLQQSGAEVKKPGASVRISCKASGYTFTSYYIHWVRQRPGQGLEFIGWIYPGNVNAKYNEKFKGRATLTTDKSASTAYMELSSLRSEDTAVYFCAIKGGNYDWGQGTLVTVSS VL: DVVMTQSPLSLPVTLGQPASISCQSSQSLLDSDGKTYLNWLQQRPGQSPRRLIYLVSKLGSGVPDRFSGSGSGTDFTLKISRVEAEDVGVYYCWQGTHFPRTFGGGTKVEIK |  |
| 0.205 | 2.02 | 0.000126 | 62100 | 12.2 | 61.3 | 2.75 | 15.2 | 45.1 | 1.69 | 12.4 | 75.8 | 10A4-H3K2-IgG1-LALA (antibody, V domains shown, Humanized; human IgG1 with LALA mutations; also called H3K2 (humanized 10A4)) VH: QVQLVQSGAEVKKPGASVKISCKASGYTFTSYYIHWVRQRPGQRLEFIGWIYPGNVNAKYNEKFKGRATLTTDKSASTAYMELSSLRSEDTAVYFCAIKGGNYDWGQGTLVTVSS VL: DVVMTQSPLSLPVTLGQPASISCQSSQSLLDSDGKTYLNWLQQRPGQSPRRLIYLVSKLGSGVPDRFSGSGSGTDFTLKISRVEAEDVGVYYCWQGTHFPRTFGGGTKLEIK |  |
| 0.475 | 1.73 | 0.000107 | 62100 | 9.79 | 54.8 | 2.66 | 14 | 46 | 2.58 | 14.3 | 74.7 | 10A4-H3K3-IgG1-LALA (antibody, V domains shown, Humanized; human IgG1 with LALA mutations; also called H3K3 (humanized 10A4)) VH: QVQLVQSGAEVKKPGASVKISCKASGYTFTSYYIHWVRQRPGQRLEFIGWIYPGNVNAKYNEKFKGRATLTTDKSASTAYMELSSLRSEDTAVYFCAIKGGNYDWGQGTLVTVSS VL: not shown |  |
